Source: publication PMC9410543

Biological target: GLuc1-ALIX (UniProt Q8WUM4)
Assay: protein-fragment complementation assay (split Gaussia luciferase, GLuc2 bait / GLuc1 prey)
Conditions: parent: est. 7.4; read off a plot

Sequence of GLuc1-ALIX (Q8WUM4 whole entry, the tested form may be a part): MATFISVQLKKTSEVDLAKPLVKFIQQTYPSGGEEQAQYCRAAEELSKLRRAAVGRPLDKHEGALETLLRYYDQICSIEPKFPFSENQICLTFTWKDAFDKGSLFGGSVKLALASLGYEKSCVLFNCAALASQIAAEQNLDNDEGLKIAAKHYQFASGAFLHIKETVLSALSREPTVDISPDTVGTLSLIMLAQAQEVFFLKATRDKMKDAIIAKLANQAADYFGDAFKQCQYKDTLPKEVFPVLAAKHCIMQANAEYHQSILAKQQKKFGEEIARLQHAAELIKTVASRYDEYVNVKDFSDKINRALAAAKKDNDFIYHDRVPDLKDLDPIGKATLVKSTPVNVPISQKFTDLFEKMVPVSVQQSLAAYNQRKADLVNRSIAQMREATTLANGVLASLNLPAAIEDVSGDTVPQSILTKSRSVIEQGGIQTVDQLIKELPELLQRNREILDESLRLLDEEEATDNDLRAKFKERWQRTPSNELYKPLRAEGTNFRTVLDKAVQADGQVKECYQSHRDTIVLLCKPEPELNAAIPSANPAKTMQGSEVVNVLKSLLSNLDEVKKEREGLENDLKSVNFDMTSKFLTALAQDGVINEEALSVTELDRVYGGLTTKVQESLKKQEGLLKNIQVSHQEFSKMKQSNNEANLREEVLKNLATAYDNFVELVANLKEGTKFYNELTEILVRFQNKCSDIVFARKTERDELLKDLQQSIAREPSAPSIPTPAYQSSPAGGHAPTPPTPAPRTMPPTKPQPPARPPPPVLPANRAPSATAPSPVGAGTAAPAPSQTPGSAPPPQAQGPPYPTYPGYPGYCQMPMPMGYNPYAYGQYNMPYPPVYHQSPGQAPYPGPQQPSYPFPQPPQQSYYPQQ

## GLuc2-pX Y800A; K801A; E802A; L803A
  response (Log2 normalized LU): 1.5
